Test results: patent publication US20250236644A1 (published 2025)
Where two headings read alike, the source gives them in different places. Ends that are not written are not given here.

Legend:
[1] = target: T1, TAMRA-labeled effector peptide cs221B (5(6)-TAMRA label coupled on resin after synthesis); assay: fluorescence polarization
T1 peptide: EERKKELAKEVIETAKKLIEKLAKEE

[2] = target: T1, TAMRA-labeled effector peptide cs221B; assay: fluorescence polarization
[3] = target: T2, TAMRA-labeled effector peptide cs074B (5(6)-TAMRA label coupled on resin after synthesis); assay: fluorescence polarization
T2 peptide: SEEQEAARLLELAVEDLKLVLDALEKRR

[4] = target: cs221-V111L-A114T DEER site pair 1; assay: fluorescence polarization; MTSL-labeled, site pair 1
[5] = target: T3, TAMRA-labeled effector peptide js007B (5(6)-TAMRA label coupled on resin after synthesis); assay: fluorescence polarization
T3 peptide: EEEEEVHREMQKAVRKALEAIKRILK

[6] = target: T4, TAMRA-labeled effector peptide cs201B (5(6)-TAMRA label coupled on resin after synthesis); assay: fluorescence polarization
T4 peptide: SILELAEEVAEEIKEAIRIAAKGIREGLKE

[7] = target: T2, TAMRA-labeled effector peptide cs074B; assay: fluorescence polarization

B1: swapped target hinge csw13 (designed binder)
chain: MSGNEEVKKLVEEAKKYLKEAEEYIKKAKKTGNEELLEKALKLLEKALELVKKAIELDPNNKEAIEQAVEIARALNEVAELLIEEAKKTGNEELLEKALEALEAANEALKLAIENNENDKELLAEIAVELAEVGVLLAEVLIEEAKKTGDPELLKLALEVLEAAVEALELALKLDPNNEEAVELAEEAAKLLEEVAKELKEEAKKTGDPELEKLAKEAEELAKRAKELAERQRGSGSHHWGSTHHHHHH
Kd [1]: < 1 nM

B2: hinge cs221 (designed binder)
chain: MSGEMKEEIRRLAEELRERTKDEEVRELAREAARLAEESDDEEVKEVVKKALEAALKSKDEEVIRLLLLAAVLAAAAARSGSPEEKLEIAKKALELAMKSKDEEVIRLALLAAVLAARSDDEEVLKKVKEALEKAMESKDVEEIRERLREAVEVARAGSGSHHWGSTHHHHHH
Kd [2]: 1.5 nM

B3: hinge cs074 (designed binder)
chain: MSGDEEVQEAVERAEELREEAEELIKKARKTGDPELLRKALEALKEAVRAVKEAIKRNPDNEEAVKTAVRLARELLKVAEELKERAEKTGDPRLLLLAAEAIAWAIEAVFLAAKASENTEGALEAARAAVKLAEVAKRIAKLLQRDAKKEGDPELLKLALRALELAVRAVELAIKENPDNEEAVETAKRLAEELRKVAELLEERAKETGDPELQELAKRAKEVADRARELAKKSNPNNGSGSHHWGSTHHHHHH
Kd [3]: 1 nM

B4: TAMRA-labeled peptide cs221B (peptide)
peptide: {5(6)‑TAMRA}-EERKKELAKEVIETAKKLIEKLAKEE
Kd [4]: 0.4 nM

B5: hinge js007 (designed binder)
chain: MSGSEEVNERVKQLAEKAKEATDKEEVIEIVKELAELAKQSTDPNLVAEVVRALTEVAKTSTDTELIQEIVKVLLELARRLTDPQLLLEVLKSIAELLKELAEKTGNETAKLAALVAQIAAEVVEMALRAEKTHPGSEIVKLAVELVQKVAEIVLIAAQLMLDKPNSDEVRKVLKEVEKVAREALKALREAKRHPDSQKARDEIKEASQKAEEVKERIERAQEGSGSHHWGSTHHHHHH
Kd [5]: 6 nM

B6: hinge cs201 (designed binder)
chain: MSGDEEVQEAVERAEELREEAEELIKKARKTGDPELLRKALEALKEAVRAVREAIKRNPDNEEAIKTALRLARELRKVAKELIERARKTGDAELLKKALEAARVAVEAVRLAAEYNKENAEKMAELLVELAELAREVADVLIELAEKTGDPELLKKALEVLEEAVEAVRLAIEYDPDHEEAVETAKRLAEELRKVAELLEERAKETGDPELQELAKRAKEVADRARELAKKSNGSGSHHWGSTHHHHHH
Kd [6]: 17 nM | Kd [1]: 4370 nM

B7: swapped target hinge csw20 (designed binder)
chain: MSGMEEVKELVEKAEELAKEAEELIKKAKKTGNPELLKEALRKLKEAVELAKEAVELDPEHEEAIELLARLAEKLLEVAKLLIELAKKTGNPELLKEALRALKEAREALRLAAEHAPEDAKLLARLAARLAELALLIAKILIELAKKTGNPELLLKALKVLTLAVEAVEAALEADPRLKEAVRVAKELAEVLKELAKLAKELAKKTGNEELKEAAKEAEEVAKRAEELAREAEGSGSHHWGSTHHHHHH
Kd [6]: 12 nM | Kd [7]: < 1 nM | Kd [1]: 1500 nM
